This series is described as follows: soluble on expression in E. coli; label from the status in PepcDB or PDB records.
For the sequence “SLIRGWLAEGERMKETSYYSYVVGELPKGCQYCVRGEKLVLFVTGVCPRNCFYCPLSPWRRKDVAYANERPIRKIEDIIEEAKIQEARGAGVTGGDPLARLNRTVEYIRTLKEEFGKKFHIHLYTTGILADKRALSMLYDAGLDEIRFHPDLFEPSSKFLNREIENLKNAFDFDWDVGGEVPAVPGFGDRIKWFAEILDKFGGKFLNINELEYSETNLSNILNRGFKLAGENSFAIKGSLELGLEILEWGEKNTSLYYHLCTAKLKDAVQLRNRLRRMAKNVAKPYMEITEDGTLRFGIAEYEDLEELYKFLVEEAEVPKEWLYINWEKKRIEMPVEVAEELAEAIEGDVKFYIVEEYPTWDRIEVERIPLNEG”, the “soluble on expression in E. coli” value is listed as “soluble”.
Then “MGHHHHHHSHMGYKLQDLTDVQIMARLQEESLRQDYASTSASVSRHSSSVSLSSGKKGTCSDQEYDQYSLEDEEEFDHLPPPQPRLPRCSPFQRGIPHSQTFSSIRECRRSPSSQYFPSNNYQQQQYYSPQAQTPDQQPNRTNGDKLRRSMPNLARMPSTTAISSNISSPVTVRNSQSFDSSLHGAGNGISRIQSCIPSPGQLQHRVHSVGHFPVSIRQPLKATAYVSPTVQGSSNMPLSNGLQLYSNTGIPTPNKAAASGIMGRSALPRPSLAINGSNLPRSKIAQPVRSFLQPPKPLSSLSTLRDGNWRDGCY”, with “not soluble”.
In the case of “MYLPIFCIFLSVVDSLRILQIVPGFTNSHVLFNYRLAETLRFLGHDVKMWTQMEMAMLDTGNNKLPEGVSEYRIPIHFTDTLKTEGLKVFQSMMFESGDAHDLWWTGQEFKDMRVEACEQMLRHDESVYEDFRKDGFDVAIAHFHDLCPLAIAKKMNVKRVIWITHGTSIYEFSAVQLGLRTIPSTIPHPLSSAGFSQLFLDRVQNTLWHLSLLDFVNLPQNLLVDENLFYREFVGADQDDLWDLAKTTVPSLLINGDRMLDFPRPLPIHIAFSGELGVSKGKKLVMEKWLEDIIEKPSDGLIVFSLGTVSNTTNMPAQMINSFLGAFGKLKTYTILWRMEKSVAGAEKYENLHLVKWLPQKDIMRHPKMKLMIAHGGYNSFLEAAQAGIPAVLMPLFADQKINAKRAQRYGMATVLDKLDLTINNVYGAIKEALKPEYSTNAKKLSAMLSDQVARKPYSALRYSLKLATSPKPSLFTLKSQHLSFLEFHNLDIFSIVLLTAFIVCF”, the “soluble on expression in E. coli” value is “not soluble”.
Take “SMEVARAARLAQIFKEICDGIISYKDSSRQALAAPLLNLPPKKKNADYYEKISDPLDLITIEKQILTGYYKTVEAFDADMLKVFRNAEKYYGRKSPVGRDVCRLRKAYYNARHEASAQIDEIVGET”: the “soluble on expression in E. coli” value was “soluble”.
Then “MAHHHHHHMVSANKSTMPLSQGCAAAAGIPLEYFETRDHINHLISLGMPRVTPHTVPPKERVATLPVPPQQDHTELMLTISSGGSPQKSYFSTTESHLLTCGTLTPKTARKRPEIDSFDMEGAFAALVKRLESRVDEEDNKDMAS”, with “not soluble”.
Then “MKESMSSVDIKYITEELKDMIVGSRVEKIYHEGNEIRFKLHKTGVGRVDLLIEAGKRIHITTYVKENLQPTSFAMLLRKYLSGKFLEDIRQYEFDRVVILSFGEYFLIAELFGRGNIIFVTKDWEIIGALRYEEFKDRAIKPKIKYVFPPSRANPLKVSFEEFKEIILNSQGTEIVRALAKNFSIGGLYSEETLLRAKIDKDRKVDELSEEELRLVYDTLLTVLNDEKKPNIVYNKEGVMVDVVPIDLQWYREYTKRYYESFSEALDEYFGKLTIEKARLEKTKQLEERRKALEISLRRIEEQIKGFEKEAMTNQEKGDALYAHYSIVNEILRVISSALKQYGVEEVKKRIEEGKKAGYPWAKMIIDVTDNKVTLNLDGIKVSLDVEKSLEENAELYYERAKKAKKKLEGAKIAYEETKRKLIELEKEIERESKEINIKKITRKKKKWFE”, with “not soluble”; and “GPGSMKERRSVSQSRTSRTGQLRNGGFRESRFRVALMSRCARPSSSGTSHMFAPSSLPSVGQPSYESGVSSMPNISFPTCNDGALSPGDSMYPPSLPQRAKNKRTGQKDKQKRQSTLGSVDSEEEKRSFLASAAAFRRHRRYNNPFTAYCLASDPYDRPREIERQRQFMSCYKRIACRFVAGGKNALDKPTRYMLGDCVARLYKAVAADWPEADPMVVSSAEDLIVVFMNLDAVRNPVTALRYMNALLKRCDVVRAFDLKKVPEGWDVVTEDGHLMYTFRPPWVGERRFLPDQVAVKKSRGR”, with “not soluble”; and “MGHHHHHHSHMTKLPPIEQLLPHDKPMILVDRAMDIQQDTIHCQVDIAEHNPFFDSASQTVPAYVGIEFMAQSVAAWSGYHALMKEQAPPIGFLLGSRRYTSECDAFSRGQMLDVYAEKVMEDNGMAVFSARIELQGTVVATCQLNVYVPSEEKLQEMKIRSQQ”, with “not soluble”.
Turning to “MSVKVIVTDMDGTFLNDAKTYNQPRFMAQYQELKKRGIKFVVASGNQYYQLISFFPELKDEISFVAENGALVYEHGKQLFHGELTRHESRIVIGELLKDKQLNFVACGLQSAYVSENAPEAFVALMAKHYHRLKPVKDYQEIDDVLFKFSLNLPDEQIPLVIDKLHIALDGIMKPVTSGFGFIDLIIPGLHKANGISRLLKRWDLSPQNVVAIGDSGNDAEMLKMARYSFAMGNAAENIKQIARYATDDNNHEGALNVIQAVLDNTSPFNS”, the “soluble on expression in E. coli” value is reported as “not soluble”.
Next, “GAMGKTVSQSQRLEHNWNKFFASFVPNLIKKNPQSKQFDHENIKQCAKDIVKILTTKELKKDSSRAPPDDLTKGKRHKVKEFINSYMDKIILKKKQKKALGLSS”: “soluble”; “MSDVAVAETPAVKTPTKASKATKAKATKIPKVKVVAAHPPFINMITEAVSNLKDRKGSSRVAIFKFITAKYTLGDQVNKTNAHLRSALKKGVVSKVLVQTNGIGANGRFRLAVAEKPPAVKKAATGEQKVMKTVAKKAVSGDKAKKTVAKKTGDKVKKVKSPKRIAKPAVKKVTKKAAAPTKSAANETAPKKAAATEAAPKKAAVTKAATKKTPARKAVGTAPKA”: “soluble”.
Next, “MSLSHSEKDVHEMGRFLLSTIKGSILELAFSHGEVEGLSFEKKVTILEIEDLDLPTDRHDELDENQRLSVTLMFALGTFCSKFGSRNRKEETVTFFDEAWIFQSSPEGQKILKSMKRIGRSFNNFMVLITQSVNDVLDNGDGTGFGTVVCFDEVDNREGILRYLKLPVNEINLKWVSNMIQGQCLMKDMFNQVNRIVIDVIFEEWLELFETVDEGHHHHHH”: “not soluble”; “MLHTTDFSDIFSSDYSSKVSFKKGDIIHSFKDYEKKPPQIGVILEGTAVLEGPTNEGRWMINALISENAIFGMESLLETKTAPELTEYRVRALENGRALFIDREFFLNYLYANPHFFHLVLDDVIVRYLFTAKNYKNINQPPIIKVTRIFVEIIELLNLHQTEGPIVLPSYITQTFLADYCRSSRARITESLEELLVNGLLASKKPITISSHEKLLDQIDSFQTGNGLLTK”: “not soluble”.
Take “MGSDKIHHHHHHMRVIDGGVTAPKGFKANGYKEGKFGVAIIISEKDAVGAGTFTTNKVVAHPVVLSRELIKNRDKFRAIVANSGNANCFTKDGMEDAKEMQRLVAELFNINEDEVLVASTGVIGRKMDMNIIKDRINKVYNLIKEGNSSINAAKAIMTTDTKPKEIAVEFEVNGKTVRVGGIAKGAGMIAPNMLHATMLCFITTDIEIDKESLTNILQKVVDKTFNNISVDGDTSTNDTVFVLANGLSGVNYEECGEEFENALLYVCRELAKMIVKDGEGATKFMEVVVKGAKTEEDAVKASKAIVNSLLVKTAVFGGDPNWGRIVAAVGYSGADFNPEVVDVILSNYKDEVYLVKDGIPLADEGTEELKKAEEIMKSDEIKIVVDLKMGEFENVCYGCDLSYEYVRINAEYTT”: the “soluble on expression in E. coli” value is “not soluble”.
Next, “MNALLVMTGLAAAASGRIGAACSALLGGGAVRGRSAGASGDEAQAQDADSSPEADRLEDVSPSGAFAGVIAALEVQAPVRDVPPPTDDLANEGEDIARSRVAATAADAVTSGGAARSPRDALGGLAFGQSPMIEAGKALYVSPVRDDERLRNGERFRDGERLRDGADGARAGMRDAASAAGAASTSRVGQPGAGAPRDQQALSQSPGQQAADKPPAGAPGPQEGTIGAPVDMPRAAARAHSPQSAPVRLGAELMSVLGERIDVQLQRGVERAVIRLDPQSMGTLHIAIRHEGGSVQIQMIASHEEVARQLQTMSEALRQDLSSRHHGDVTVVVRHGQGMEQGAGHGEGGAHREEKRPGAALAEADVPDGDDGFRLDGRDVI”: “not soluble”; “MGNDKRVRKPEWLKISIGANERYTETKRIVESHCLHTICSSGRCPNMGECWGKGTATFMIAGDICTRSCKFCNTQTGRPLPLDPDEPTHVAESIALMKLSHAVITSVDRDDLPDLGAAHWAQTIREIKRLNPETTTEVLIPDFQGRKELVDQVIKACPEIISHNMETVKRISPQVRSAANYHTSLEVIRQIAESGITAKSGIMVGLGETPAEVEELMDDLISVGCKILTIGQYLQPTHKHFPVAAYITPEQFAVYKETGLKKGFEQVESAPLVRSSYHAEKHIRFNNK”: “not soluble”.
With “MTHPIIHDLENRYTSKKYDPSKKVSQEDLAVLLEALRLSASSINSQPWKFIVIESDAAKQRMHDSFANMHQFNQPHIKACSHVILFANKLSYTRDDYDVVLSKAVADKRITEEQKEAAFASFKFVELNCDENGEHKAWTKPQAYLALGNALHTLARLNIDSTTMEGIDPELLSEIFADELKGYECHVALAIGYHHPSEDYNASLPKSRKAFEDVITIL”, the “soluble on expression in E. coli” value was “soluble”.
Then “GPGSMLRHAARCFSPRQCYVSPRVMEAEYAVRGLIPARADEIKADLATGHGTYSFESLVYCNIGNPQSVGQMPLTFYRQVMVLVDAPFLLEDAEIVARLPEDAVARARRYLSEIGTGTGAYTESFGFRFARAAVAAHINELDHGVSPAATVNDICLTDGASMGAKLFLQLLVGGASDAVMIPVPQYPLYSAQIALLGGVKVPYGLHESEGWVMKLSDLVAAYERCVTESGATPRLFVCINPGNPTGNVLERCVMEDVVRFCHERGMLLLADEVYQENVYDTRRRFLSFREVVLGMPEPYCSETMLVSLHSTSKGVIGECGRRGGYFCMTNLPAALRQQVVKLCSINLCANVNGQLMTALMCSPPREGEASYALHRREYDEIFTGMKERAELLARELGAVRGLSCQPVEGAMYAFPRIVLPERYAQRNEELNAKEGRQLALDARWALELLESSGIVVVPGSGFGQEPGTLHFRITILPPLEQIDRMVRAIREFQDRIYEQYA”, with “soluble”; and “MDGISLYDDCVMLAYNKEVRRNCLPFTCGENDLDDFFLNDADLYADELLGKTYCWVTTEIPHRIVALFTLSNDSIKTRLISPNDKNRLQRNIVNPKRGRSYPAVLIGRLGVNLEYQGTSSHVGRQLMAFIKDWFRHEDNKTGCRFIVVDAYNEEKILRYYERNGFVPLYKTDVIEKQYYDIPQDEPLKTRLLYFDLKKD”, with “not soluble”; and “GPGSMMTTCPQTRCYNCGTFGHSSQICHSKPHCFHCSHSGHRSSECPMRSKGRVCYQCNEPGHEAANCPQGQLCRMCHRPGHFVAHCPEVVCNLCHLKGHTAGVCDNVHCDNCGRNHETVHCHQPYLAPVTHDRVSEERSASLPSEHDPSSADQSNNSATPCDSDDGGSNRGGEPRPRTGVSCAPVVPPYIPLDGPKRDGRVAIVVDGSYFERCVAVRRNRSDPTYYRHITDALLYTIDYIGDIFQCEPFAYWFDTDTAAFREFVETSMPLAHRENAFREASMRKRYLTDEMNSGRSLPNVVAKLVGGMKRQRGFTEDGPGHVWVQTGVDVATATCVIELFQDRRQFRQVVLLCGDADVYPAVQYCNTLRRSSHQHADSNPVRVCGTSDSMSKIYGQQQDLTDFLPRLLLDCPLHTEGGRTIEFPTSKVFMSVR”, with “not soluble”.

Values taken from the DeepSol protein solubility set.
